The source of these data is patent US11472840B2, “Acetylcholine receptor-binding peptide” (AMICOGEN, INC., priority 2017, dated 2022).

The target in one assay is acetylcholine receptor (Homo sapiens, UniProt P02708). In words: Surface plasmon resonance (SPR) affinity measurement on a biosensor chip (Biacore 3000). The following applies: running buffer 20 mM Tris pH 7.4, peptide 0.1 to 0.5 μM, higher binding than Synake (FIG. 10). Here is the method:
A surface plasmon resonance (SPR) experiment was progressed using a biosensor chip to check affinity values for acetylcholine receptors of S6_1 (SEQ ID NO: 23, WTWKGKGTLNR), i.e., discovered peptides and Synake, i.e., a positive control group (Biacore 3000, Biacore AB, Uppsala, Sweden). […] A binding ability comparing experiment was carried out under observation conditions of a running buffer of 20 mM Tris (pH 7.4), a speed of 30 ? /min, a concentration of 10 to 50 μM (Synake), and a concentration of 0.1 to 10 μM (peptides S6_1). Respective results of the binding ability comparing experiment are shown in FIG. 7 (Synake) and FIG. 8 (peptides S6_1).
A surface plasmon resonance (SPR) experiment was progressed using a biosensor chip to check affinity values for acetylcholine receptors of optimized S6_1_C9 peptides (SEQ ID NO: 28, WKGKGTLNR) prepared in Example 6 (Biacore 3000, Biacore AB, Uppsala, Sweden).
An experiment of measuring affinity values of the peptides was carried out under observation conditions of a running buffer of 20 mM Tris (pH 7.4), a speed of 30 ? /min, and a concentration of 0.1 to 0.5 μM (peptides S6_1_C9).

Assay [1] has as its target acetylcholine receptor (AchR) alpha 1. In words: SPR (Biacore 3000), AchR coupled to chip, peptide 0.1 to 0.5 uM; reference Synake. On the technique in general: Surface plasmon resonance follows binding to a sensor surface in real time, without labels.

Sequence of acetylcholine receptor (AchR) alpha 1 (P02708 whole entry): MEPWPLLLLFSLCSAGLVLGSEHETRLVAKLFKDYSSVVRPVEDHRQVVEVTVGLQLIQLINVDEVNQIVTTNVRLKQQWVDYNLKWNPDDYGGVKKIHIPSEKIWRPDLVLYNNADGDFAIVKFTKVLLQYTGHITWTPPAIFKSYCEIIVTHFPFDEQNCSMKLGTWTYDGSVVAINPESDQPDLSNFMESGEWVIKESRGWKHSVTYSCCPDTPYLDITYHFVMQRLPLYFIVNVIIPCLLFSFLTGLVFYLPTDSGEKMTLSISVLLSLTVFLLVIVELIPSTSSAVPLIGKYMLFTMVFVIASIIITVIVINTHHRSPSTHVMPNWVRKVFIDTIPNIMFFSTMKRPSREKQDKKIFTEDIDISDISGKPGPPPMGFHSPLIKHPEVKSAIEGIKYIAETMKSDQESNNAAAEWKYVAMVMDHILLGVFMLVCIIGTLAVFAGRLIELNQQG
Sequence of acetylcholine receptor (P02708 21-457): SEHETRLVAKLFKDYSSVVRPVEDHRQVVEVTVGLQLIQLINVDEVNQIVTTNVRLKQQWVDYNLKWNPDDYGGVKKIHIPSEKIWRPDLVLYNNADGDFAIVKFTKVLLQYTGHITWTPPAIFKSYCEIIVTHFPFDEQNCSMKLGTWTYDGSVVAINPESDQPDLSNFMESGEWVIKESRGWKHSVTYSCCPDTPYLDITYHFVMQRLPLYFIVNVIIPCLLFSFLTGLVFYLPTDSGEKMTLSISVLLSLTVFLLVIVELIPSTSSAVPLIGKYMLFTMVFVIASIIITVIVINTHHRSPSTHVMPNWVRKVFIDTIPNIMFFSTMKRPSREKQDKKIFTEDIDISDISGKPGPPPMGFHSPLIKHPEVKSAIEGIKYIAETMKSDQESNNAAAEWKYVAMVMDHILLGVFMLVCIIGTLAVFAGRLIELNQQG

Take WKGKGTLNR (Ach-R) [S6_1_C9]: the “binding ability for acetylcholine receptor relative to Synake” value with acetylcholine receptor is given as “about 100 times”.
In the case of WKGKGTLNR [S6_1_C9], in assay [1], the binding abilities, fold higher than Synake was 100 times.
